In patent publication US20130209489A1 (Amgen, published 2013):

Columns and labels:
[1] = biological target: T1, Peptide P (chymotryptic peptide, antibody-protected Cys knot, dimer) (human); assay: BIAcore competition: 12A5-5 pre-incubated with the HPLC peptide fraction in solution, then passed over immobilized human myostatin; low response means the peptide binds the antibody
T1 construct: Formed when myostatin pre-incubated with 12A5-5 was digested with chymotrypsin
T1 chain 1: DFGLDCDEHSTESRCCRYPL
T1 chain 2: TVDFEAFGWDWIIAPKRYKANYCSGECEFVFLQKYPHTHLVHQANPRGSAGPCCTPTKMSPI
T1 chain 3: GKIPAMVVDRCGCS
Description: (§1) The strategy for characterizing the epitopes bound by anti-myostatin neutralizing monoclonal antibodies was to use various CNBr—, LysC— and chymotrypsin-generated human myostatin peptides and determine which peptides could be bound by the antibody. In one aspect, this was tested in a BIAcore® competition binding assay where the binding of 12A5-5 to human myostatin immobilized on a BIAcore® chip was determined in the presence or absence of each of the various isolated HPLC peptide fractions. In the absence of any competing peptides, 12A5-5 was able to bind the human myostatin on the chip and produce an RU (resonance unit) response. […] This general procedure was repeated individually for each peptide. […] These binding patterns, coupled with the known identity of the various myostatin peptides were used to determine which regions of myostatin were important (or necessary) for the binding of antibody 12A5-5.

[2] = biological target: T2, Peptide G (LysC peptide, Cys knot, dimer) (human); assay: as above
T2 construct: Four LysC peptides held together by disulfide bonds (cystine knot), dimeric through Cys73 (19.5 kD)
T2 chain 1: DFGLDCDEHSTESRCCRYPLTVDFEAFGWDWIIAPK
T2 chain 2: ANYCSGECEFVFLQK
T2 chain 3: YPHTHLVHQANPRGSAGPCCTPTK
T2 chain 4: IPAMVVDRCGCS
Description: as §1

mature human myostatin [3] = biological target: T3, mature human myostatin (human, UniProt O14793 267-375); assay: cell-based or functional assay
mature human myostatin [4] = biological target: T3, mature human myostatin; assay: KinExA solution equilibrium assay, myostatin-coated beads
From the text: (§2) Solution-based equilibrium-binding assays using KinExA® technology (Sapidyne Instruments, Inc.) are employed to determine the dissociation equilibrium (Kd) of myostatin binding to antibody molecules. This solution-based assay is considered to be more sensitive than the BIAcore® assay in some instances. Reacti-Gel 6×(a highly reactive, cross-linked 6% agarose bead for immobilization of amine-containing ligands; Thermo Scientific Pierce, Rockford, Ill.) is pre-coated with about 50 microG/ml myostatin overnight, and then blocked with bovine serum albumin (BSA; 1 mg/ml). Antibody samples (10 pM, and 30 pM) were incubated with various concentrations (0.5 pM to 5 nM) of myostatin in sample buffer containing 0.1 mg.ml BSA at room temperature for eight hours before being run through the myostatin-coated beads. The amount of the bead-bound antibody is quantified by fluorescent (Cy5) labeled goat anti-human-Fc antibody at 1 mg/ml in SuperBlock® (an optimized protein-based solution for blocking excess binding sites; Thermo Scientific Pierce, Rockford, Ill.). The binding signal is proportional to the concentration of free antibody at equilibrium with a given myostatin concentration. Kd is obtained from the nonlinear regression of the competition curves using a dual-curve one-site homogeneous binding model provided in the KinExA™ software (Sapidyne Instruments, Inc.).

GDF11 = biological target: T4, GDF11 (UniProt O95390 299-407); assay: separate experiment, method not named (Biacore section)
T4 construct: also called growth and differentiation factor 11; BMP-11

promyostatin = promyostatin (UniProt O14793 24-375, limits assumed); assay: KinExA solution equilibrium assay, promyostatin-coated beads
From the text: as §2, with “Kd is obtained from the nonlinear regression of the competition curves using a dual-curve one-site homogeneous binding model provided in the KinExA™ software (Sapidyne Instruments, Inc.).” left out
A KinExA™ assay similar to the one previously described was run, using promyostatin instead of mature myostatin. […] The amount of the bead-bound antibody is quantified substantially as previously described.

mature human myostatin [5] = biological target: T3, mature human myostatin; assay: ratio of the affinities for GDF11 and myostatin

T4 sequence (O95390 299-407 limits assumed): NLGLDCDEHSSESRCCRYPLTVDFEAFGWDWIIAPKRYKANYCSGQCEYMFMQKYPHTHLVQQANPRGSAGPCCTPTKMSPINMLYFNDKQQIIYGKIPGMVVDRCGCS

- binding result [1]: binds
- binding result [2]: binds
- Cell Assay (IC50), inhibition of myostatin activity (mature human myostatin [3]): 1200 pM
- Kd (mature human myostatin [4]): ~2 pM
- Kd (GDF11): ~180000 pM
- Kd (promyostatin): ~2 pM
- fold selectivity for myostatin over GDF11 (mature human myostatin [5]): ~10000 fold
B1: anti-myostatin neutralizing monoclonal antibody 12A5-5 (antibody, V domains shown)
VH: EVQLVESGGGLVQPGGSLRLSCAASGFTFSRYWMNWVRQAPGKGLEWVAQIRLKSDNYATHYAESVKGRFTISRDNAKNSLYLQMNSLRAEDTAVYYCTEGLDYWGQGTTVTVSS
VL: DIQMTQSPSSLSASVGDRVTITCKASQDINKYVAWYQQKPGKAPKLLIYYTSWLQPGVPSRFSGSGSGTDFTFTISSLQPEDIATYYCLQYDNLLYTFGQGTKLEIK
notes: in the KinExA assay it was detected with a goat anti-human-Fc antibody, so it carries a human Fc; also called Mab 12A5-5; MAb 12A5-5
